Data published in patent US20170233485A1 (Biogen, published 2017).
Several values for one entry are separate records, joined by “and”; a condition that tells them apart may be missing. Equal entries are not always repeated.

What was measured:
[1] = target: T1, human CD40 (cell surface) (human, UniProt P25942 20-277); experiment: cell-based or functional assay
[2] = target: T1, human CD40 (cell surface); experiment: FACS, A647-conjugated mAb on primary B cells in human whole blood
[3] = target: T2, mouse CD40 (cell surface) (mouse, UniProt P27512 20-289); experiment: flow cytometry on 293E transfected cells
T2 construct: whole, on cells; also called murine CD40
T2 sequence (looked up): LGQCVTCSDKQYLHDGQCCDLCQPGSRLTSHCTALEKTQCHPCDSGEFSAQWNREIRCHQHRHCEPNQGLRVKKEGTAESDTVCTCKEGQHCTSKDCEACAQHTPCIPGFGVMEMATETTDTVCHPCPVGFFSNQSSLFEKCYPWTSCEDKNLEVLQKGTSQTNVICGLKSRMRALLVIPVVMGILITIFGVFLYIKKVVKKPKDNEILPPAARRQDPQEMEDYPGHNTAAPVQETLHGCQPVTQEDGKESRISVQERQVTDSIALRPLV

[4] = target: T3, human C1q (human, UniProt P02745 23-245; P02746 28-253; P02747 29-245); experiment: ELISA, titrated antibody coated, human C1q detected
T3 construct: the three subunits are from general knowledge; also called Complement protein C1q
Experimental: It was also determined that Exemplary Anti-CD40 Antibody 1 is not capable of activating complement by testing its binding to C1q. The assay (adapted from Idusogie et al., J. Immunol., 164:4178-84 (2000)) was conducted in an ELISA format where titrations of the test antibodies are coated in the wells and binding of human C1q is detected with chicken IgY anti-human C1q (custom reagent from Ayes Labs) followed by a donkey F(ab′) 2 anti-chicken IgY HRP conjugate.

[5] = target: T4, human CD40 H78Q, full length, on 293E cells (human, UniProt P25942 20-277); experiment: binding to CD40 SNP variants expressed on 293E cells (data not shown)
T4 construct: also called CN916
Description: The prevalence of these SNPs is quite rare, believed to be at or below the 3% range. Exemplary Anti-CD40 Antibody 1 bound to 6 of the CD40 proteins encoded by DNA sequences containing SNPs comparably to WT CD40, but more weakly to H78Q and R90W (reduced plateau) and not quantifiably to C77F (data not shown).

[6] = target: T5, human FcγR CD16a V158-GST fusion protein (human, UniProt P08637 17-208, limits assumed); experiment: ALPHAscreen competition: test antibody displaces biotinylated IgG1 from FcγR-GST
T5 construct: FcγR-GST fusion protein on anti-GST acceptor beads; also called FcγRIIIA; not shown: GST
Experimental: (§1) In order to confirm the expected reduced binding profile of Exemplary Anti-CD40 Antibody 1 to human FcγR, relative binding affinities were measured using Amplified Luminescent Proximity Homogeneous Assay (ALPHAscreen) technology from Perkin Elmer. With this technology, binding pairs are immobilized onto “donor” and “acceptor” beads. Upon laser excitation, donor beads release singlet oxygen that reacts with acceptor beads in close proximity (≦200 nm) generating a cascade of events that ultimately results in fluorescence emission at 520-620 nm.
(§2) The chimeric AKH3 antibody constructs with the human IgG1 and aglycosyl IgG4P/G1 Fc regions were included in the FcγR and C1q assays as Fc competent and Fc-effectorless comparators, respectively. The assay was performed in a competitive format in which binding of test antibodies to FcγR disrupts the interaction of biotinylated IgG1 and FcγR-GST fusion protein immobilized on Streptavidin donor beads and anti-GST acceptor beads respectively. The plates were read using an Envision plate reader (Perkin Elmer) and the resulting relative fluorescence units (RFU) were plotted versus the concentration of test IgG as shown in FIG. 26.

[7] = target: T6, human FcγR CD32a R131-GST fusion protein (human, UniProt P12318 34-217, limits assumed); experiment: as above
T6 construct: FcγR-GST fusion protein on anti-GST acceptor beads; also called FcγRIIa; not shown: GST
T6 sequence (looked up): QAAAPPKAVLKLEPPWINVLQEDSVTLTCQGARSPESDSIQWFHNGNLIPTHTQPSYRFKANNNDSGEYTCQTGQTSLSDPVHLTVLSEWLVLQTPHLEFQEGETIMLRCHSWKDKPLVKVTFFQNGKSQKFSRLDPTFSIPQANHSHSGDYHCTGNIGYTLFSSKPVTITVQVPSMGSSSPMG
Experimental: as §1, §2

[8] = target: T7, human FcγR CD32b-GST fusion protein (human, UniProt P31994 43-217, limits assumed); experiment: as above
T7 construct: FcγR-GST fusion protein on anti-GST acceptor beads; also called FcγRIIB; not shown: GST
T7 sequence (looked up): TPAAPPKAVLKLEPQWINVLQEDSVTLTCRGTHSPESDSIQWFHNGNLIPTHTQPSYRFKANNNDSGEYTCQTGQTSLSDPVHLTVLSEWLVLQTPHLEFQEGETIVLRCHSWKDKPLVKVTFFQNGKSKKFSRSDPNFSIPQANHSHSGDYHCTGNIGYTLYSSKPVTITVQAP
Experimental: as §1, §2

[9] = target: T8, human FcγR CD64-GST fusion protein (human, UniProt P12314 16-292, limits assumed); experiment: as above
T8 construct: FcγR-GST fusion protein on anti-GST acceptor beads; also called FcγRI; not shown: GST
Experimental: as §1, §2

T1 sequence (P25942 20-277 limits assumed): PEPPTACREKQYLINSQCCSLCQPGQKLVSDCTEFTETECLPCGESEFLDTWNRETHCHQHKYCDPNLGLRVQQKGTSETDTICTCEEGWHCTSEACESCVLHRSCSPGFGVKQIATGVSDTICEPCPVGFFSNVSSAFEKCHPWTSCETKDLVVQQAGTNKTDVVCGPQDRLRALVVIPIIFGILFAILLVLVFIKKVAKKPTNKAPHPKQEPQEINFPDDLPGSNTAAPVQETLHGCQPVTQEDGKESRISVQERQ
T4 sequence (P25942 20-277 H78Q limits assumed): as the sequence (P25942 20-277 limits assumed) above, with H59Q counted along it
T8 sequence (P12314 16-292 limits assumed): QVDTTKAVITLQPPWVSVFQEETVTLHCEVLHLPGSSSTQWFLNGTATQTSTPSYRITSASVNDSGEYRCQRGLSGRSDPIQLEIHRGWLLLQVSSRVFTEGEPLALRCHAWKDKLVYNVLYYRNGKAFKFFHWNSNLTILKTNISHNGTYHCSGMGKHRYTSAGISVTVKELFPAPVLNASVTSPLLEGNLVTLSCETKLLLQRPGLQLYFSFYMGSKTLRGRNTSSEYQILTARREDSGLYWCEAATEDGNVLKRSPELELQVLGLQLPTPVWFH
T5 sequence (P08637 17-208 F176V limits assumed): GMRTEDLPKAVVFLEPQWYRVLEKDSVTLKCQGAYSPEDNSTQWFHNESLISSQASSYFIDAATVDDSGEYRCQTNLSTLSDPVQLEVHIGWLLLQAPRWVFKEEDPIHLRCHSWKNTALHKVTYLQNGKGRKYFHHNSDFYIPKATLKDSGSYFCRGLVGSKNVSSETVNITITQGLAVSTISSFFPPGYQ
T3 sequence (P02745 23-245 limits assumed, chain 1 of 3): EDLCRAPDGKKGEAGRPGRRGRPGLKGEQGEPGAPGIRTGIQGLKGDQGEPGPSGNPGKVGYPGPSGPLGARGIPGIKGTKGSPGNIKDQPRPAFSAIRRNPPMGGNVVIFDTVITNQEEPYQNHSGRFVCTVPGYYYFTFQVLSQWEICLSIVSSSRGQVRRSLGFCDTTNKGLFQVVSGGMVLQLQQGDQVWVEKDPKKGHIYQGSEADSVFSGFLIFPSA
T3 sequence (P02746 28-253 limits assumed, chain 2 of 3): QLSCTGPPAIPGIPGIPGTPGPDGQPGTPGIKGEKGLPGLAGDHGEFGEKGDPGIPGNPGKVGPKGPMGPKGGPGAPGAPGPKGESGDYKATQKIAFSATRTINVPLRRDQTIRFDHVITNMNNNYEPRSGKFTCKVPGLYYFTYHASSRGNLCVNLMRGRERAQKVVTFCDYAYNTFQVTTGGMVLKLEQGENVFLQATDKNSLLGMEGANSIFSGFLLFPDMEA
T3 sequence (P02747 29-245 limits assumed, chain 3 of 3): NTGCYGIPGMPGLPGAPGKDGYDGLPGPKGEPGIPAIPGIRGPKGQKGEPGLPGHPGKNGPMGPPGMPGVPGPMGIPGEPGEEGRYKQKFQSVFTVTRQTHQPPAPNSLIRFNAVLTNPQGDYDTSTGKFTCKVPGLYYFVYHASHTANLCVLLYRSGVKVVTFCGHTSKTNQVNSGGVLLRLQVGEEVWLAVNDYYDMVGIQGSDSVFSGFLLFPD

B1: Agly hAKH3 IgG4P/IgG1 (antibody, V domains shown)
VH: EVQLVQSGAEVKKPGASVKVSCKASGYTFTTFPIEWVRQAPGQGLEWMGNFHPYNDDTKYNEKFKGRVTLTADKSTSTAYMELSRLRSEDTAVYYCARRGKLPFDSWGQGTTVTVSS
VL: DIQMTQSPSSLSASVGDRVTISCRASQDISNYLNWYQQKPGKVPKLLIYFTSRLRSGVPSRFSGSGSGTDYTLTISSLQPEDVATYYCQQDRKLPWTFGQGTKLEIK
[1]
  IC50, inhibition of CD40L+ Jurkat (D1.1) T cell stimulation of primary human B cells (ICAM-1/CD54 up-regulation, flow cytometry), five normal donors: 11 ng/mL and 0.07 nM
[2]
  EC50: 0.5 nM

B2: Exemplary Anti-CD40 Antibody 1 (antibody, human IgG4 S228P, kappa)
heavy: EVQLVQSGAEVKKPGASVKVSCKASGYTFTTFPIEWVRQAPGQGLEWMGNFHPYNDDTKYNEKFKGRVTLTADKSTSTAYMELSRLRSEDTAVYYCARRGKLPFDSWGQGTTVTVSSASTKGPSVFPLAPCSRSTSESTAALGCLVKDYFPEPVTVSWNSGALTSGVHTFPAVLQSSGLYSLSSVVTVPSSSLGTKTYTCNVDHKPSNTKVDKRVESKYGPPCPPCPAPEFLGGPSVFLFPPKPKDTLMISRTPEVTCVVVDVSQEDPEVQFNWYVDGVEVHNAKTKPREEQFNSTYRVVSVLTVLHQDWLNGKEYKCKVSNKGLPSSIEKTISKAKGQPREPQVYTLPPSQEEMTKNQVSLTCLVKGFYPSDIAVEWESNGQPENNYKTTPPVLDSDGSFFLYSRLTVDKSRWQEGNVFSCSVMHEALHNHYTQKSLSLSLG
light: DIQMTQSPSSLSASVGDRVTISCRASQDISNYLNWYQQKPGKVPKLLIYFTSRLRSGVPSRFSGSGSGTDYTLTISSLQPEDVATYYCQQDRKLPWTFGQGTKLEIKRTVAAPSVFIFPPSDEQLKSGTASVVCLLNNFYPREAKVQWKVDNALQSGNSQESVTEQDSKDSTYSLSSTLTLSKADYEKHKVYACEVTHQGLSSPVTKSFNRGEC
modifications: Alexa647 conjugate in some whole-blood assays; N-linked glycan on the heavy chain; neither is carried by the letters.
notes: Humanized IgG4/kappa with S228P (Kabat); also called hAKH3 IgG4P; AKH3 IgG4P; copies: 2 + 2
[3]
  binding result: no binding
[4]
  binding result: no binding
[5]
  binding result: binds
[6]
  fold reduction of binding against WT IgG1 (chAKH3 IgG1): ~200 fold
[7]
  fold reduction of binding against WT IgG1 (chAKH3 IgG1): ~5 fold
[8]
  fold reduction of binding against WT IgG1 (chAKH3 IgG1): ~5 fold
[9]
  fold reduction of binding against WT IgG1 (chAKH3 IgG1): ~150 fold
